# Measurements from patent US20250163183.
# B1: human activated protein C (APC) (protein)
# chain: ANSFLEELRHSSLERECIEEICDFEEAKEIFQNVDDTLAFWSKHVDGDQCLVLPLEHPCASLCCGHGTCIDGIGSFSCDCRSGWEGRFCQREVSFLNCSLDNGGCTHYCLEEVGWRRCSCAPGYKLGDDLLQCHPAVKFPCGRPWKRMEKKRSHLLIDGKMTRRGDSPWQVVLLDSKKKLACGAVLIHPSWVLTAAHCMDESKKLLVRLGEYDLRRWEKWELDLDIKEVFVHPNYSKSTTDNDIALLHLAQPATLSQTIVPICLPDSGLAERELNQAGQETLVTGWGYHSSREKEAKRNRTFVLNFIKIPVVPHNECSEVMSNMVSENMLCAGILGDRQDACEGDSGGPMVASFHGTWFLVGLVSWGEGCGLLHNYGVYTKVSRYLDWIHGHIRDKEAPQKSWAP
# Biological target: LP3, LP9, LP11, and LP18
protein,measurement,value
B1,APC-mediated SEAP-PAR1 cleavage at 0.7-6 nM nanobody,reduced PAR1 cleavage down to 73-82% of controls
